Data taken from US5990094A, “Inhibitors of sorotonin N-acetyltransferase” (The Rockefeller University, priority 1998, dated 1999).

Experiments:
Test in all cases: purified protein, by the assay type
[1] = substrate: NCCc1c[nH]c2ccccc12
[2] = substrate: CC(=O)SCCNC(=O)CCNC(=O)[C@H](O)C(C)(C)COP(=O)(O)OP(=O)(O)OC[C@H]1O[C@@H](n2cnc3c(N)ncnc32)[C@H](O)[C@@H]1OP(=O)(O)O
[3] = substrate: NCCc1c[nH]c2ccc(O)cc12
[4] = substrate: CNCCc1c[nH]c2ccccc12; conditions: other: Table 1, tryptamine analogs
[5] = substrate: CC(N)Cc1c[nH]c2ccccc12; conditions: other: Table 1, tryptamine analogs
[6] = other: ionic strength I~0.1, GST-AANAT
[7] = other: 1 mM (near saturating) concentration of the fixed substrate, GST-AANAT
[8] = other: Table 1, tryptamine analogs

B1: GST-AANAT fusion (Ovis aries) (protein)
chain: MSTPSVHCLKPSPLHLPSGIPGSPGRQRRHTLPANEFRCLTPEDAAGVFEIEREAFISVSGNCPLNLDEVQHFLTLCPELSLGWFVEGRLVAFIIGSLWDEERLTQESLALHRPRGHSAHLHALAVHRSFRQQGKGSVLLWRYLHHVGAQPAVRRAVLMCEDALVPFYQRFGFHPAGPCAIVVGSLTFTEMHCSLRGHAALRRNSDR
Km [1, 6]: 100 µM
Km [2, 7]: 289 µM
Km [2, 6]: 100 µM
Km [3, 7]: 241 µM

B2: AANAT (Ovis aries) (protein)
chain: B1 chain
Km [1, 8]: 170 µM
Km [4]: 3800 µM
Km [5]: 2700 µM
Km [3, 8]: 240 µM

B3: unmodified AANAT (Ovis aries) (protein)
chain: B1 chain
Km ([2]; other: 1 mM (near saturating) concentration of the fixed substrate, AANAT): 178 µM
